Reference: article doi:10.1101/2022.02.10.479912 (bioRxiv, 2022)

Experiments:
[1] = target: T1, human Interleukin-18 (mature) (human, UniProt Q14116 37-193); assay: SEC-MALLS
T1 sequence (looked up): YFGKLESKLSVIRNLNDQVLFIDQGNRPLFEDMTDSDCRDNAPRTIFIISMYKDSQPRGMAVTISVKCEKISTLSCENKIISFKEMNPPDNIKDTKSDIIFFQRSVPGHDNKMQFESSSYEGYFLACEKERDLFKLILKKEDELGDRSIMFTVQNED

[2] = target: T1, human Interleukin-18 (mature); assay: ITC

B1: human IL-18BP truncated at the N-terminus (residues 63-194), endogenously glycosylated, without Endo H treatment (domain or fragment, UniProt O95998 63-194, looked up)
chain: QCPALEVTWPEVEVPLNGTLSLSCVACSRFPNFSILYWLGNGSFIEHLPGRLWEGSTSRERGSTGTQLCKALVLEQLTPALHSTNFSCVLVDPEQVVQRHVVLAQLWAGLRATLPPTQEALPSSHSSPQQQG
modifications: N-linked Man5GlcNAc2 glycans, not trimmed (no Endo H)
binding result [1]: binds

B2: human IL-18BP truncated at the N-terminus (residues 63-194) treated with Endoglycosidase H (domain or fragment, UniProt O95998 63-194, looked up)
chain: B1 chain
modifications: N-glycans trimmed by Endo H; N-Acetylglucosamine (GlcNAc) at Asn79, Asn103 and Asn147 in the crystal structure
binding result [2]: binds
